Consider five molecules from patent US20150299322A1 (Dana-Farber, published 2015).

To fix the notation:
B5: mouse PD-1 (mPD-1) expressed on transfected 300 cells (receptor, UniProt Q02242 25-288, looked up)
chain: LEVPNGPWRSLTFYPAWLTVSEGANATFTCSLSNWSEDLMLNWNRLSPSNQTEKQAAFCNGLSQPVQDARFQIIQLPNRHDFHMNILDTRRNDSGIYLCGAISLHPKAKIEESPGAELVVTERILETSTRYPSPSPKPEGRFQGMVIGIMSALVGIPVLLLLAWALAVFCSTSMSEARGAGSKDDTLKEEPSAAPVPSVAYEELDFQGREKTPELPTACVHTEYATIVFTEGLGASAMGRRGSADGLQGPRPPRHEDGHCSWPL
notes: whole, on cells; also called 300-mPD-1 cells; mPD-1 cells

The target in experiment [1] is T1, mPD-L2-Ig fusion protein (construct not told at the result) (mouse, UniProt Q9WUL5 20-221).
T1 construct: extracellular domain; not shown: Ig part: the methods name mPD-L2-hIgG1/IgA, mPD-L2-mIgG2a/IgA and mPD-L2-hIgG (R&D)
T1 sequence (looked up): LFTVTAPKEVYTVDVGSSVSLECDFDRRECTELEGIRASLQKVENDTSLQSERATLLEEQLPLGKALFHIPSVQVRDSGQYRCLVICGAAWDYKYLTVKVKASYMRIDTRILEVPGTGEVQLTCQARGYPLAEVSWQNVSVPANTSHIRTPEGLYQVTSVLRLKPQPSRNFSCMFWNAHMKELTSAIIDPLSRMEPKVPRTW
The experiment is described as follows: ELISA, coated BMP-2, PD-L2-Ig added without RGMb. The method, then: (§1) To determine if RGMb binds PD-L2 and BMP-2/4 simultaneously, 96-well ELISA plates were coated with BMP-2/4 as above. mPD-L2-hIgG1/IgA, mPD-L2-hIgG (R&D), mPD-L1-hIgG (R&D) or control-Ig fusion proteins at 10 μg/ml were preincubated with 10 μg/ml mRGMb-HIS (R&D) or buffer alone for 15 min. at room temperature (RT), then added to the plates and incubated for 1h at 37° C. Alternatively, 10 μg/ml mRGMb-HIS (R&D) or buffer alone was added first to the plates and incubated for 1h at 37° C. After wash, mPD-L2-Ig or control-Ig fusion proteins were added and incubated for 1h at 37° C. Fab₂ goat anti-hIgG-HRP (Jackson ImmunoResearch Laboratories) at 1:10000 was used for detection.
(§2) To test if RGMb can bind both PD-L2 and BMP at the same time, an ELISA was performed to analyze the binding capacity of PD-L2-Ig fusion protein to immobilized BMP-2/4 in the presence or absence of RGMb. PD-L2 could not directly bind to BMP-2/4, but in the presence of RGMb could form a complex with BMP when RGMb and PD-L2-Ig were added simultaneously (FIG. 4A-4B) or sequentially to BMP-2/4.

Experiment [2] deals with T2, recombinant mRGMb-HIS (R&D) (mouse, UniProt Q7TQ33 49-415, limits assumed).
T2 construct: Bought from R&D; not shown: HIS tag
T2 sequence (looked up): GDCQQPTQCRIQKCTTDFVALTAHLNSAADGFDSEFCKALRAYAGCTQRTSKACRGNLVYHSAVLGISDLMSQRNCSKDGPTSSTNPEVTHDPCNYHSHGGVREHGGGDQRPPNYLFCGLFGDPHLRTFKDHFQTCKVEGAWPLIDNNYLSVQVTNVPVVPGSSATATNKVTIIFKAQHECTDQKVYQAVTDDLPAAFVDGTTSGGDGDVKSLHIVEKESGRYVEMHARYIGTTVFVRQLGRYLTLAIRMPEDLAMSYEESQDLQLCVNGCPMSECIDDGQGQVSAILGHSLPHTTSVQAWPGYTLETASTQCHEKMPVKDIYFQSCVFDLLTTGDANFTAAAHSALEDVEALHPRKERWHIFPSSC
The experiment in a line: ELISA, coated BMP-2, mRGMb-HIS bridging PD-L2-Ig. The procedure:
as §1, §2

Experiment [3] has as its target T3, recombinant hRGMb-HIS (R&D) (human, UniProt Q6NW40 46-413).
T3 construct: Bought from R&D; not shown: HIS tag
T3 sequence: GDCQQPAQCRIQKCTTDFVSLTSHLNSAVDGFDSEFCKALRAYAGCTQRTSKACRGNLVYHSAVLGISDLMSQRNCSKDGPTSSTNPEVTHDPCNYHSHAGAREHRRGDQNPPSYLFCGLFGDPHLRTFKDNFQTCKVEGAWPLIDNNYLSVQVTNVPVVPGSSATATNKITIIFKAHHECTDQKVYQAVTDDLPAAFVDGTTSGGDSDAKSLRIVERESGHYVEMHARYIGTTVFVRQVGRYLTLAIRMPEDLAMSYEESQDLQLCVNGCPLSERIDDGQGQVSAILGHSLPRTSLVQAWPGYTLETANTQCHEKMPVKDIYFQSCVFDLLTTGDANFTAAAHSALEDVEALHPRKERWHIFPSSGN
The experiment is described as follows: ELISA, coated hRGMb-HIS, PD-L2-Ig in solution. The method, then:
(§3) To examine RGMa/RGMb/RGMc and PD-L2 interaction, 96-well ELISA plates were coated with 2 or 5 μg/ml of recombinant mRGMa-HIS, mRGMb-HIS, mRGMc-HIS, or hRGMb-HIS (R&D). Then, serial dilutions of mPD-L2-hIgG1/IgA, mPD-L2-mIgG2a/IgA, hPD-L2-mIgG2a or control-Ig fusion proteins were added and incubated for 1h at 37° C. Fab₂ goat anti-hIgG-HRP (Jackson ImmunoResearch Laboratories) or rat anti-mIgG2a-HRP (BD Biosciences) at 1:1000 or 1:10000 were used for detection.

In experiment [4] the target is T2, recombinant mRGMb-HIS (R&D). The experiment is described as follows: ELISA, coated mRGMb-HIS, PD-L2-Ig in solution. The procedure: as §3
Experiment [5] has as its target T1, mPD-L2-Ig fusion protein (construct not …). The experiment is described as follows: ELISA, coated BMP-4, PD-L2-Ig added without RGMb. The method, then:
as §1, §2

The target of experiment [6] is T2, recombinant mRGMb-HIS (R&D). The experiment is described as follows: ELISA, coated BMP-4, mRGMb-HIS bridging PD-L2-Ig. The method, then: as §1, §2
For experiment [7], the target named is T4, mouse RGMb (mRGMb) expressed on transfected cells (mouse, UniProt Q7TQ33 49-415).
T4 construct: whole, on cells; Also used for mRGMb in cell lysates (Western blot); also called DRAGON; 300-mRGMb cells
T4 sequence (looked up): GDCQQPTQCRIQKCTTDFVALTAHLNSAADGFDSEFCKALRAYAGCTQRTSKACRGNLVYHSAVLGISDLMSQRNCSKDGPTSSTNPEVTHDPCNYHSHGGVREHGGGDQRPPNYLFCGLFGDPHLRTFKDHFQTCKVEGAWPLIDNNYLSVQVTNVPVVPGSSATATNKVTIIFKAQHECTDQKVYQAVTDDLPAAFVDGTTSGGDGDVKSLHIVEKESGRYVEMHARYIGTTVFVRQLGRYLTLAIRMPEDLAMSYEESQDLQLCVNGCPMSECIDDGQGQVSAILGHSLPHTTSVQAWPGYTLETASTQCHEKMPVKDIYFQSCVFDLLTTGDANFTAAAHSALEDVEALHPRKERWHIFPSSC
The experiment is described as follows: cell conjugation assay, flow cytometry. The method, then:
(§4) An assay for receptor-ligand binding was developed based on cell to cell binding as determined by flow cytometry. One transfected cell type was labelled with the red dye PKH26 (Sigma) and the other transfected cell with the green dye PKH67 (Sigma) according to the manufacturer's instructions. Red dye-labelled and green dye-labelled cells ([…] each cell type) were incubated in 200 μl of HBSS buffer without calcium and magnesium (GIBCO) supplemented with 10% heat-inactivated FBS (Invitrogen), 15 μg/ml gentamicin (Invitrogen) and 1% HEPES (Invitrogen) in a round bottom 96-well plate for 45 min at 37° C. When the cell conjugation assay was used to test the blocking capacity of antibodies, one transfected cell type was pre-incubated 30 min at RT with antibodies before adding the other type of transfected cells. Conjugate formation was analyzed immediately by flow cytometry using the PE channel for the red dye and the FITC channel for the green dye. The automated plate harvester of the FACSCanto (BD Biosciences) was used for uniformity of cell processing. The instrument settings were as follows, throughput mode: standard, loader settings: sample flow rate at 0.5 μl/second, sample volume and mixing volume at 100 μl, mixing speed at 50 μl/second, number of mixes at 2, and wash volume at 400 μl.
(§5) To test the RGMb:PD-L2 interaction under more physiologic conditions, a cell conjugation assay was used where one transfected cell type was labeled with a red dye and the other transfected cell type with a green dye. The binding of the two cell types was assessed by flow cytometry and indicated by double positive events (yellow dots). […] FIGS. 1L, 1N, 1P, and 1R show only the dot plots without corresponding FSC-SSC plots. As expected, mRGMb cells bound to mPD-L2 cells (FIG. 1K), but not mPD-L1 cells (FIG. 1L). As positive controls, mPD-1 cells bound to both mPD-L2 and mPD-L1 cells (FIGS. 1M-1N). Negative control binding assays had very few conjugates (<0.3%) (FIGS. 1O-1R).

The target of experiment [8] is B5. The experiment is described as follows: cell conjugation assay, flow cytometry. The procedure:
as §4, §5

Experiment [9] concerns the target T5, mRGMb-Ig fusion protein (mRGMb-mIgG2a) (mouse, UniProt Q7TQ33 49-415, limits assumed).
T5 construct: extracellular domain; Purified from CHO cell culture supernatants
T5 sequence (looked up): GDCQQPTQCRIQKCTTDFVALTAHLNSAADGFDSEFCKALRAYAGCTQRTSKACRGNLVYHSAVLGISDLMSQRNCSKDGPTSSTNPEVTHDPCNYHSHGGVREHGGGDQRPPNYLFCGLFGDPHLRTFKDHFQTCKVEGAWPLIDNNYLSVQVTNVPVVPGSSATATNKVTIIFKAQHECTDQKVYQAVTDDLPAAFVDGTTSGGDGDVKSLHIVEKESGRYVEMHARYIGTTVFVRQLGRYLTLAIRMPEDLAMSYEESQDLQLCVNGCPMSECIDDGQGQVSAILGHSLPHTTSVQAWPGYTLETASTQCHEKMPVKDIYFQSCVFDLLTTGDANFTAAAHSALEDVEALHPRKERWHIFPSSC
The experiment is described as follows: flow cytometry on mPD-L2 transfected 300 cells.

The target of experiment [10] is T6, mouse PD-L1 (mPD-L1) expressed on transfected 300 cells (mouse, UniProt Q9EP73 19-290).
T6 construct: whole, on cells; also called 300-mPDL 1; mPD-L1 cells
The experiment in a line: cell conjugation assay, flow cytometry. The method, then: as §4, §5

T6 sequence (Q9EP73 19-290): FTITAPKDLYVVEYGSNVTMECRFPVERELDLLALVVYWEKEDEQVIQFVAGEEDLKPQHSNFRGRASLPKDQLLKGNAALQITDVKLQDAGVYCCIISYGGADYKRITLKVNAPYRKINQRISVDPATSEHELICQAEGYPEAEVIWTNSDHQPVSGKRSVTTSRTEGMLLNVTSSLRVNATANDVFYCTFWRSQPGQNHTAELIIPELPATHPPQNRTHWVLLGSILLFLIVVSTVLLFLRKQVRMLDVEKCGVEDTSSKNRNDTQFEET

B1: recombinant mouse BMP-2 (GIBCO) (ligand, UniProt P21274 281-394, looked up)
chain: QAKHKQRKRLKSSCKRHPLYVDFSDVGWNDWIVAPPGYHAFYCHGECPFPLADHLNSTNHAIVQTLVNSVNSKIPKACCVPTELSAISMLYLDENEKVVLKNYQDMVVEGCGCR
notes: Coated on ELISA plates at 1 ug/ml; also called mBMP-2; BMP-2/4
As to B1, the values for the binding result in experiment [1] and in experiment [2] were “no binding (tested: 10 ug/ml)” and “binds”, respectively.

B2: hPD-L2-mIgG2a fusion protein (Fc fusion)
chain: LFTVTVPKELYIIEHGSNVTLECNFDTGSHVNLGAITASLQKVENDTSPHRERATLLEEQLPLGKASFHIPQVQVRDEGQYQCIIIYGVAWDYKYLTLKVKASYRKINTHILKVPETDEVELTCQATGYPLAEVSWPNVSVPANTSHSRTPEGLYQVTSVLRLKPPPGRNFSCVFWNTHVRELTLASIDLQSQMEPRTHPT
notes: not shown: mouse IgG2a part
For B2, the binding result in experiment [3] and in experiment [4] was “binds” in each case.

B3: recombinant mouse BMP-4 (R&D) (ligand, UniProt P21275 293-408, looked up)
chain: SPKHHPQRSRKKNKNCRRHSLYVDFSDVGWNDWIVAPPGYQAFYCHGDCPFPLADHLNSTNHAIVQTLVNSVNSSIPKACCVPTELSAISMLYLDEYDKVVLKNYQEMVVEGCGCR
notes: Coated on ELISA plates at 1 ug/ml; also called mBMP-4; BMP-2/4
In the case of B3, the binding result in experiment [5] is recorded as “no binding (tested: 10 ug/ml)”; in experiment [6], “binds”.

B4: mouse PD-L2 (mPD-L2) expressed on transfected 300 cells (ligand, UniProt Q9WUL5 20-247, looked up)
chain: LFTVTAPKEVYTVDVGSSVSLECDFDRRECTELEGIRASLQKVENDTSLQSERATLLEEQLPLGKALFHIPSVQVRDSGQYRCLVICGAAWDYKYLTVKVKASYMRIDTRILEVPGTGEVQLTCQARGYPLAEVSWQNVSVPANTSHIRTPEGLYQVTSVLRLKPQPSRNFSCMFWNAHMKELTSAIIDPLSRMEPKVPRTWPLHVFIPACTIALIFLAIVIIQRKRI
notes: whole, on cells; also called 300-mPD-L2 cells; mPD-L2 transfected cells
In the case of B4, the binding result in experiment [7], in experiment [8] and in experiment [9] was “binds” in each case.
On to B5, for which, in experiment [10], the binding result is “binds”.
